6 molecules from publication PMC8591511, “Flexible open conformation of the AP-3 complex explains its role in cargo recruitment at the Golgi” (The Journal of Biological Chemistry, 2021) can be followed below.

The labels stand for the following.
B1: Nyv1 (yeast SNARE, AP-3 cargo with Yxxφ motif) (natural protein, UniProt Q12255 1-253, looked up)
chain: MKRFNVSYVEVIKNGETISSCFQPFQKNENYGTITSANEQITPVIFHNLIMDMVLPKVVPIKGNKVTKMSMNLIDGFDCFYSTDDHDPKTVYVCFTLVDMPKILPIRILSGLQEYESNATNELLSSHVGQILDSFHEELVEYRNQTLNSSGNGQSSNGNGQNTISDIGDATEDQIKDVIQIMNDNIDKFLERQERVSLLVDKTSQLNSSSNKFRRKAVNIKEIMWWQKVKNITLLTFTIILFVSAAFMFFYLW
notes: Nyv1, yeast SNARE; source: reconstituted into proteoliposomes
B2: Aps3 (σ-subunit of yeast AP-3) (natural protein, S. cerevisiae, UniProt P47064 1-194, looked up)
chain: MIHAVLIFNKKCQPRLVKFYTPVDLPKQKLLLEQVYELISQRNSDFQSSFLVTPPSLLLSNENNNDEVNNEDIQIIYKNYATLYFTFIVDDQESELAILDLIQTFVESLDRCFTEVNELDLIFNWQTLESVLEEIVQGGMVIETNVNRIVASVDELNKAAESTDSKIGRLTSTGFGSALQAFAQGGFAQWATGQ
notes: Aps3, σ-subunit of the yeast AP-3 complex
B3: Apm3 (μ3-subunit of yeast AP-3) (natural protein, S. cerevisiae, UniProt P38153 1-483, looked up)
chain: MYLSFYITDTKNKLIFQYLLGATAPSFKHLWTRVQSTCPQLLEDSSSDDYLDHSMVGRDLEVYKYFSVINKLNYWCLASTSKSKGPLDCFTFLETIDRILLEYFDKDKLSIKKIVNNYDRISLIFNCCVEAGEPNVSDMLYVNKIKEAVPERSDLSKFISSTAHNLQQAVQLPQQRQQQLQQNQISRGSNSLIENEEIVPWRTSRASKHENNELYVDLLETFHVVFEKKKSHLRLLTGSIHGIVDVRSYLNDNPLVAVKLNTMGNDIGIPSLHDCVEINDGVFSPSNITFIPPDGKFRLLEYSVDLSSQVKQSGVRMNSIGLMSLHFQNGLGKDSDEFELSLNIENFKKVSQVDDLKIDLQFNVENADPNEIAYKIKILRNTHGRFENSIIMGQGQWIFDKSTATGTVPVLRGCIEYENTGPNFTKKVDLQTVSLEYSYIGQSASGIYVEAIDIVSGLTIGKNTKLYKGAKYKTQTGNFQVRL
notes: Apm3, μ3-subunit of the yeast AP-3 complex; N-terminal domain aa 1–138, linker aa 139–211
B4: Apl6 (β3-subunit of yeast AP-3) (natural protein, S. cerevisiae, UniProt P46682 1-809, looked up)
chain: MVDSIHRIASALDTAKVITREAAAVATSKLGESSYTYYSQNINPQQLVTLLNSRNSREVRDAMKRIISIMASDDDSIDVQLYFADVVKNITTNDTKVKRLIHLYLLRFAENDPNLTLLSINSLQKSLSDSNSELRCFALSALSDMKMSSLAPIILHTVKKLVTDPSAMVRGEVALAIIKLYRAGKNDYHEELLDILKELMADTDPKVISCAVLAYKECYADHLELLHGHFRRYCRIIKQLDSWSQSYLIELLIKYCKQYLPKPTVVDKSSEGSPRSCPLPDKYNEIEYPSYEVVNDPDLDLFLQSLNCLIYSSNPTVILSCCNALYQLASPLQMKNTKFIEALVRTVTMTENQGNKEMLLQAIHFLSILDQTLFLPYTKKFYVFPKDPIVASIWKIQILSTLINESNVKEIFKELKYYVASAHFPENVVIMAVKSLSRCGQLSTSWESHVMKWLIDHMESHNLSASVLDAYVNVIRMLVQKNPTKHLRIIFKLADLLTVQTSLADNARAGIVWLFGEIASIEFKICPDVLRRLIQNFSNEGPETRCQILVLSAKLLSYDIDNFKQAQVTGSEENNQNPPYYDFSGSRISQMYNAVLYLAKYDDEFDIRDRARMISSLFDSGKYEIVSLLLQAPKPTARSDDFIVSARLETHTPEIKEFFRMLPWNTEITEVGETGNDIREGAELKDYNKYKKSFSSQSFITNNSARSFTSSSNAKLTGINDGDSNSISGKGNVNTFTSQNGKKYRLQSLDEFFSDIPERKSKPRKIIKVVEESSDEDEDESEESSDDDEYSDSSLGTSSSGTSSSHLEL
notes: Apl6, β3-subunit of the yeast AP-3 complex; ear domain aa 631–809

Assay [1] deals with GST-Chs3(aa1-38)-Vam3(TMD) (not stated | yeast) (UniProt P29465). The assay is described as follows: liposome flotation assay; proteoliposomes (Golgi-mimicking lipid mix) carrying a total of 1 μM cargo, incubated with purified AP-1 or AP-3 complex, floated on a sucrose step gradient; top fraction TCA-precipitated, SDS-PAGE, band of Apl4 or Apl5 quantified as percent of load; in Fig. 6E without PIPs or Arf1, in Fig. 6D also with Arf1 and PI3P or PI4P; 150 mM NaCl, 20 mM HEPES/NaOH pH 7.4, 1 mM MgCl2, 10 % glycerol, 60 min 4 °C.

Assay [2] addresses Vam3 (yeast vacuolar SNARE, AP-3 cargo with dileucine motif) (yeast) (UniProt Q12241). The assay is described as above.
Assay [3] addresses N-myristoylated Arf1, loaded with GTP or GTPγS by Sec7ΔC (UniProt P11076). Briefly: liposome flotation assay; empty liposomes (Golgi-mimicking lipid mix, with or without PI3P or PI4P) incubated with increasing Arf1, Sec7 GEF and GTP, then purified AP-1 or AP-3 complex; floated on a sucrose step gradient; band of Apl4 or Apl5 in the top fraction quantified.
For assay [4], the target named is T1, full-length yeast AP-3 complex (S. cerevisiae, UniProt Q08951 1-932; P46682 1-809; P38153 1-483; P47064 1-194).
T1 construct: Apl5, δ-subunit of the yeast AP-3 complex; ear domain aa 639–932; Apl6, β3-subunit of the yeast AP-3 complex; ear domain aa 631–809; Apm3, μ3-subunit of the yeast AP-3 complex; Aps3, σ-subunit of the yeast AP-3 complex; Heterotetramer with apparent equimolar stoichiometry, about 300 kDa; also called adapter protein complex 3; copies: + + +
The assay is described as follows: liposome flotation assay; proteoliposomes (Golgi-mimicking lipid mix) carrying a total of 1 μM cargo, incubated with purified AP-1 or AP-3 complex, floated on a sucrose step gradient; top fraction TCA-precipitated, SDS-PAGE, band of Apl4 or Apl5 quantified as percent of load; in Fig. 6E without PIPs or Arf1, in Fig. 6D also with Arf1 and PI3P or PI4P; 150 mM NaCl, 20 mM HEPES/NaOH pH 7.4, 1 mM MgCl2, 10 % glycerol, …. Conditions: both partners purified.

In assay [5] the target is T2, Apl5 (δ-subunit of yeast AP-3) with C-terminal 3xFLAG-tag (S. cerevisiae, UniProt Q08951 1-932).
T2 construct: Apl5, δ-subunit of the yeast AP-3 complex; ear domain aa 639–932; also called δ-adaptin; not shown: 3xFLAG, C-terminal, kept
T2 sequence (looked up): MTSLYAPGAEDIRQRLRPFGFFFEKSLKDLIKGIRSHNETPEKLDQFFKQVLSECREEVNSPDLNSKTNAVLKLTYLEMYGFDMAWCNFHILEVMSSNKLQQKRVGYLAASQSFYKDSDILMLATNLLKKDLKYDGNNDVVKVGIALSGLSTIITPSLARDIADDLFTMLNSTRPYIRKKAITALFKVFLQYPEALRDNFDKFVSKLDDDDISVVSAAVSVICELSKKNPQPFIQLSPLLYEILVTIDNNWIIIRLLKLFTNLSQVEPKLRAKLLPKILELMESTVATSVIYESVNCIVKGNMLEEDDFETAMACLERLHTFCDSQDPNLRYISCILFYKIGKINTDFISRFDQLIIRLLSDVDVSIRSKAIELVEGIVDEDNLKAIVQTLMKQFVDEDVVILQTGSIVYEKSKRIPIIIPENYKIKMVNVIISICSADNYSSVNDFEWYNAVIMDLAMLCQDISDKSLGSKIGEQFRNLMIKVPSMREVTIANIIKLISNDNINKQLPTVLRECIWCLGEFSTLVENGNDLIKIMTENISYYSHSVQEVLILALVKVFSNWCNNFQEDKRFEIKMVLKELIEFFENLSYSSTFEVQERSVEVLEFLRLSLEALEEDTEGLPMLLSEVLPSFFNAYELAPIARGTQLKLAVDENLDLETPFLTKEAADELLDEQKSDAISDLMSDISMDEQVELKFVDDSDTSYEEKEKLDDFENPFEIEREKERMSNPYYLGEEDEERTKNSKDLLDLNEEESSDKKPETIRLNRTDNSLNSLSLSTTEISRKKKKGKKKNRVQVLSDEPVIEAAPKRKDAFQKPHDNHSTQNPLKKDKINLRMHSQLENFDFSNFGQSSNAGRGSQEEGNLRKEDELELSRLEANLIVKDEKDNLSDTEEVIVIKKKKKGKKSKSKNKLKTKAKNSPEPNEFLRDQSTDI
Briefly: cross-linking; 200 μg of purified AP-3 complex, DSSO 0.5 mM added twice, 20 min each at room temperature, quenched with Tris; trypsin, SCX, LC/MS (XlinkX, 1% FDR). The settings on record: both partners purified.

Assay [6] deals with B4. The description is as above. Conditions: both partners purified.
Assay [7] concerns the target T2, Apl5 (δ-subunit of yeast AP-3) with …. The assay is described as follows: pull-down + SEC; subunits overproduced together in yeast; captured from cleared lysate on anti-FLAG M2 affinity gel via the C-terminal 3xFLAG-tag on Apl5 (AP-3) or Apl4 (AP-1), eluted with FLAG-peptide, run on Superose 6 Increase; 150 mM NaCl, 20 mM HEPES/NaOH pH 7.4, 1.5 mM MgCl2; Coomassie staining after SDS-PAGE. Conditions: partners not purified.

Chain of Vam3 (yeast vacuolar SNARE, AP-3 cargo with dileucine motif) (yeast) (Q12241 whole entry): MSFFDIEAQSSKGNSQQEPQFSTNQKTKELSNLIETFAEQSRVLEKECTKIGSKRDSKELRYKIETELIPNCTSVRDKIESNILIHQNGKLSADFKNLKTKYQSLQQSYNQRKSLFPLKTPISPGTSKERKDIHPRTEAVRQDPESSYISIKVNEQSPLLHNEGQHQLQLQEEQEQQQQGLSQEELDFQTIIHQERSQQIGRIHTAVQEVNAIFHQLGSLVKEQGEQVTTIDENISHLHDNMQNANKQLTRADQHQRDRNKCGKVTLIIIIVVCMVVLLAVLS
Chain of N-myristoylated Arf1, loaded with GTP or GTPγS by Sec7ΔC (P11076 whole entry, stated change not applied): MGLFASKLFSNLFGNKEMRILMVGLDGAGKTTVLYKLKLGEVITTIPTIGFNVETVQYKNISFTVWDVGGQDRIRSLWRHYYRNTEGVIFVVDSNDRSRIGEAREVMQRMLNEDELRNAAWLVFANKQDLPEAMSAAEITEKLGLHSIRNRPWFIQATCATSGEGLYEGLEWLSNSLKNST
Chain of GST-Chs3(aa1-38)-Vam3(TMD) (not stated | yeast) (P29465 other isoform, or with tags, fused parts or gaps): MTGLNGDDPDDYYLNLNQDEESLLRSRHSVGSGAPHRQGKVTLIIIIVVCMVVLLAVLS

In turn, “full-length yeast AP-3 complex, Q08951 1-932; P46682 1-809; P38153 1-483; P47064 1-194” gave a percent of AP-3 recruited to proteoliposomes (without PIPs or Arf1) in assay [1] of 25%. For the same molecule, in assay [2], the percent of AP-3 recruited to proteoliposomes (Vam3 alone) is more than 25%; the percent of AP-3 recruited to proteoliposomes (Vam3 with low amounts of Arf1 and PIPs) was determined as 50%; the percent of AP-3 recruited to proteoliposomes (without PIPs or Arf1) was determined as 25%.

In assay [3], “full-length yeast AP-1 complex (from UniProt Q12028 1-832)” returned a fold increase in membrane-bound AP-1 with both Arf1-GTP and PI3P or PI4P of 2 to 3 fold; a percent of the complex bound to liposomes with Arf1-GTP (no PIPs) of 10%.

Regarding B1, the binding result in assay [4] is recorded as “binds”.

Regarding B2, the binding result in assay [5] and in assay [6] was “binds” each time.

On to B3, for which the binding result in assay [6] and in assay [7] was “binds” each time.

In the case of B4, in assay [7], the binding result is “binds”.
